For data set [1], the system named is MS2 coat protein. Put plainly: apparent KD of MS2 coat protein; designed switch direction (-1 OFF switch, 1 ON switch): -1; higher = weaker reporter binding. Particulars: Eterna round: R98. On the procedure:
(§1)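 RNA-MaP: designed FMN/MS2 RNA switches (84 nt design region) are transcribed on-chip within common flanks and titrated with SNAP-549-labelled MS2 coat protein (about 1-3000 nM) in 100 mM Tris pH 7.5, 80 mM KCl, 4 mM MgCl2, without or with 200 uM FMN. Median apparent KD per design; activation ratio = KD,OFF / KD,ON.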

In data set [2] the test system is MS2 coat protein. As to the kind of experiment: apparent KD of MS2 coat protein; higher = weaker reporter binding. Particulars: Eterna round: R101. As to the method: as §1

As to “AAAGUCGAGAAGAUAAUAAUGAAUACAUGAGGAUCACCCAUGUAGGAUAUGCAGUGGAAUACACUGCAGAAGGACAUACUCGAC [Exclusion NG 3/16-B1]”, the “apparent KD of MS2 coat protein” value in data set [1] (input ligand: FMN 200 uM) is 16.4 nM; in data set [1] (input ligand: none), 13.6 nM.
On to “AAUUAAUUAAUUAAUUGGACUGAUACAUGAGGAUCACCCAUGUAGGAUAUGCAGUGGAAUACACUGCAGAAGGACAUACAGUCC [Exclusion NG 3/1-B2]”, for which the “apparent KD of MS2 coat protein” value in data set [1] (input ligand: FMN 200 uM) was determined as 18.3 nM; in data set [1] (input ligand: none), 14.5 nM.
With “AGGUGGGUGCUGCAGUGAUAUACAUGAGGAUCACCCAUGUCCGAGGAUAUGCGGCAAACACGCCAGCAGAAGGCGGAGAAAAUG [Soorisrila]”, the figures for the “apparent KD of MS2 coat protein” value in data set [1] (input ligand: FMN 200 uM) and in data set [1] (input ligand: none) were 154 nM and 125 nM, respectively.
Take “AGUACUCCAGAAGGAUAUGCGUCGGUGGAUGUCCUUAGGCGGACGGUCACAUGAGGAUCACCCAUGUAGAAGGUCUGGGAGCCA [Leesla]”: the “apparent KD of MS2 coat protein” value in data set [1] (input ligand: FMN 200 uM) was 87.3 nM; in data set [1] (input ligand: none), 19.2 nM.
In the case of “CAAUUGGCACAGAAGGGUGACAUGAGGAUCACCCAUGUAGCGUGGCUCUCAGGAGGAGCCACGCCACAGGAUAUGUGCCGGCAC [Anrilaage] (puzzle (switch architecture): Inverted Same State NG 2)”, the results for the “apparent KD of MS2 coat protein” value in data set [2] (input ligand: FMN 200 uM) and in data set [2] (input ligand: none) were 102 nM and 177 nM, respectively.
Regarding “CACGACAGGAAACGGAGCGGCCAACAUGAGGAUCACCCAUGUGAGGAUAUGCCUACUAAAAGUAGGCAGAAGGCACAGAAGGCA [Ex NG2 #73]”, the “apparent KD of MS2 coat protein” value stood at 136 nM in data set [1] (input ligand: FMN 200 uM) and 58.1 nM in data set [1] (input ligand: none).
“CUCCCUCCCUCCCUCCCUCCCUCCGAGGAUAUCCCAAACUCCCUCCCUCCCUCCCUCCCAAAUUCCCAGAAGGCCCUUUUUCCC [2nd design] (puzzle (switch architecture): Small Loop Same State NG 3)”: the “apparent KD of MS2 coat protein” value in data set [2] (input ligand: FMN 200 uM) stood at 4.61 nM; in data set [2] (input ligand: none), 46.4 nM.
With “CUUACUUUGUAGAAGGGUGACAUGAGGAUCACCCAUGUGCGUCUCCUGAAAGACCAGGGUACGCCACAGGAUAUACAAAGUAAG [Tigeatdi] (puzzle (switch architecture): Inverted Same State NG 2)”, the results for the “apparent KD of MS2 coat protein” value in data set [2] (input ligand: FMN 200 uM) and in data set [2] (input ligand: none) were 59.8 nM and 116 nM, respectively.
On to “GCACUGGAUGUAGGAUAUCAGGACGAUAAGUCCUGAGAAGGACAUGAGGAUCACCCAUGUAAAUACUCCCAGUGCAAUAAUAUA [Denovo Exng1 21]”, for which the “apparent KD of MS2 coat protein” value in data set [1] (input ligand: FMN 200 uM) is 16.6 nM; in data set [1] (input ligand: none) it was 12.6 nM.
“GCAGCUAAUGCAGGAUAUCAGCACGUGUAGUGCUGAGAAGGGCACAUGAGGAUUCUGUCUGUGAUCAAUUAAUAUUAAUGCUGC [salish99#hingeEx3_55-58_006] (puzzle (switch architecture): Exclusion NG 1)”: the “apparent KD of MS2 coat protein” value in data set [2] (input ligand: FMN 200 uM) was 11.5 nM; in data set [2] (input ligand: none), 30.4 nM.
For “GCGUAAAAGAUCCUAUUUAUCUACAUGAGGAUCACCCAUGUGCAGGAUAUGCUAUAUUUAAUAAAGCAGAAGGGCAAUAACCGC [JR_ExcNG3_Sub009]”, the “apparent KD of MS2 coat protein” value in data set [1] (input ligand: FMN 200 uM) was 281 nM; in data set [1] (input ligand: none), 67.6 nM.
In the case of “GCUGCAAAGUAAGGAUAUGCCUAGGAAACCUAGGCAGAAGGUACAUGAGGAUCACCCAUGUUAACUGAAACAGAAUAAAGCAGC [Thrunch 6 - Jieux - Exclusion NG 1]”, the “apparent KD of MS2 coat protein” value in data set [1] (input ligand: FMN 200 uM) came to 23.2 nM; in data set [1] (input ligand: none) it was 13.5 nM.
In the case of “GGUCGACCUCAAGGAUAUGGACUGCAAAGCAGUCCAGAAGGUGAGGAUCACCCACCUACGGUCAGGAAACUGACCGAUCGACCA [#SharedSequence - ExNG1-2] (puzzle (switch architecture): Exclusion NG 1)”, the “apparent KD of MS2 coat protein” value in data set [2] (input ligand: FMN 200 uM) was found to be 117 nM; in data set [2] (input ligand: none) it was 19.8 nM.
With “GGUUAUAUAACAUGAGGAUCACCCAUGUGAGUGGUCCGAAGCUAGGAUAUCCACACGAGAAGUGUGGAGAAGGAGCAUUCAUUA [AK-NGROCr2-ExNG3-7]”, the “apparent KD of MS2 coat protein” value is 159 nM in data set [1] (input ligand: FMN 200 uM) and 273 nM in data set [1] (input ligand: none).
Regarding “GUAGCUAUCGGAGGAUAUUCAUACCGGAAACGGACAUGAGGAUCACCCAUGUGGCGAAAGCCAUGGGAGAAGGCCGAUAGCUAC [jl-sng2-3.01 #MUTATE_MAP] (puzzle (switch architecture): Same State NG 2)”, the “apparent KD of MS2 coat protein” value in data set [2] (input ligand: FMN 200 uM) is 52.2 nM; in data set [2] (input ligand: none), 856 nM.
On to “UAAAUAGAUCCUAGAGGAUCACCCUAGGAUAUCACCGUCGAGGUGCCAUAAUGGCACCUCGACGGUGAGAAGGAGGGAAAUAAA [#SharedSequence - SLExNG3: 2] (puzzle (switch architecture): Small Loop Exclusion NG 3)”, for which the “apparent KD of MS2 coat protein” value was found to be 77.8 nM in data set [2] (input ligand: FMN 200 uM) and 51.2 nM in data set [2] (input ligand: none).
Turning to “UCUUAAAUGAUCCUAUUUACCAACAUGAGGAUCACCCAUGUGCAGGAUAUGCUAAAGAUAGAUAAGCAGAAGGGCAUUAACCGC [JR_ExcNG3_Sub006]”, the “apparent KD of MS2 coat protein” value in data set [1] (input ligand: FMN 200 uM) worked out at 244 nM; in data set [1] (input ligand: none), 165 nM.
With “UGUGUUAUCGGAGGAUAUCGAUAUCAAACAUGAGGAUCACCCAUGUUGAGGAUCACCCAUGUCCACGAGAAGGCCGGCGUACUG [My 7th design] (puzzle (switch architecture): Same State NG 2)”, the “apparent KD of MS2 coat protein” value in data set [2] (input ligand: FMN 200 uM) stood at 12.5 nM; in data set [2] (input ligand: none), 12.9 nM.
“UUGCAUUGAUGAGGAUAUGGACAUGAGGAUCACCCAUGUUGGGCGGGUAUGAUUUCCGAGGGAGGCUAGAAGGCGUAUUAUGUU [Exclusion NG 2]”: the “apparent KD of MS2 coat protein” value in data set [1] (input ligand: FMN 200 uM) is 60.8 nM; in data set [1] (input ligand: none) it was 45.5 nM.
